# Experimental data from article PMC10949331, “Labile assembly of a tardigrade protein induces biostasis” (Protein Science : A Publication of the Protein Society, 2024).
# B1: Cytoplasmic Abundant Heat Soluble protein D (CAHS D), wild type (natural protein, Hypsibius exemplaris, UniProt P0CU50 1-227, looked up)
# chain: MSGRNVESHMERNEKVVVNNSGHADVKKQQQQVEHTEFTHTEVKAPLIHPAPPIISTGAAGLAEEIVGQGFTASAARISGGTAEIHLQPSAAMTEEARRDQERYRQEQESIAKQQEREMEKKTEAYRKTAEAEAEKIRKELEKQHARDVEFRKDLIESTIDRQKREVDLEAKMAKRELDREGQLAKEALERSRLATNVEVNFDSAAGHTVSGGTTVSTSDKMEIKRN
# notes: CAHS D of the tardigrade Hypsibius exemplaris, 227 residues, UniProt P0CU50; Cloned into pET28b; also called CAHS8_HYPEX; CAHS 94063; source: E. coli BL21 (DE3), purified (heat lysis, cation exchange in 8 M urea, dialysis, lyophilised)
# Molecular target: the molecule itself
# Assay: cross-linking; 1 mg/mL of each protein with increasing BS3 amine ester crosslinker (0.8-8 mM), 30 min at room temperature; denaturing SDS-PAGE, Coomassie blue
protein,measurement,value
B1,binding result,binds
